Key:
Conditions in all cases: both partners purified
[1] = target: T1, mouse Rbpj (53-474) WT (mouse, UniProt P31266 53-474); experiment: ITC; cofactor (RAM peptide, Hairless or SHARP) in the syringe, Su(H) or Rbpj in the cell; 50 mM sodium phosphate, 150 mM sodium chloride; 20 injections, triplicate, one site model; 25°C by the legend, 20°C by the methods
T1 construct: also called WT Rbpj; WT RBPJ; source: E. coli BL21 Tuner, purified (ammonium sulfate, glutathione resin, PreScission cut, SP ion exchange)

[2] = target: T2, mouse Rbpj (53-474) E89G (mouse, UniProt P31266 53-474, E89G); experiment: as above
T2 construct: also called Rbpj E89G; E89G (analogous to human RBPJ E63G); source: E. coli BL21 Tuner, purified (ammonium sulfate, glutathione resin, PreScission cut, SP ion exchange)

[3] = target: T3, mouse Rbpj (53-474) K195E (mouse, UniProt P31266 53-474, K195E); experiment: as above
T3 construct: also called Rbpj K195E; K195E (analogous to human RBPJ K169E); source: E. coli BL21 Tuner, purified (ammonium sulfate, glutathione resin, PreScission cut, SP ion exchange)

[4] = target: T4, mouse Rbpj WT (53-474) (mouse, UniProt P31266 53-474); experiment: ITC; RAM peptide, Hairless or SHARP in the syringe, Su(H) or Rbpj in the cell; 50 mM sodium phosphate, 150 mM sodium chloride; 20 injections of 14 uL; triplicate; one site binding model; 20°C by the methods, 25°C by the legend of Fig 6
T4 construct: also called CBF1; mouse CSL; source: E. coli BL21 Tuner, pGEX-6P1, purified (glutathione resin, PreScission cleavage, SP ion exchange)

[5] = target: T5, mouse Rbpj E89G (53-474) (mouse, UniProt P31266 53-474, E89G); experiment: as above
T5 construct: also called analogous to human RBPJ E63G; source: E. coli BL21 Tuner, pGEX-6P1, purified (glutathione resin, PreScission cleavage, SP ion exchange)

[6] = target: T6, mouse Rbpj K195E (53-474) (mouse, UniProt P31266 53-474, K195E); experiment: as above
T6 construct: also called analogous to human RBPJ K169E; source: E. coli BL21 Tuner, pGEX-6P1, purified (glutathione resin, PreScission cleavage, SP ion exchange)
T6 sequence (P31266 53-474 K195E): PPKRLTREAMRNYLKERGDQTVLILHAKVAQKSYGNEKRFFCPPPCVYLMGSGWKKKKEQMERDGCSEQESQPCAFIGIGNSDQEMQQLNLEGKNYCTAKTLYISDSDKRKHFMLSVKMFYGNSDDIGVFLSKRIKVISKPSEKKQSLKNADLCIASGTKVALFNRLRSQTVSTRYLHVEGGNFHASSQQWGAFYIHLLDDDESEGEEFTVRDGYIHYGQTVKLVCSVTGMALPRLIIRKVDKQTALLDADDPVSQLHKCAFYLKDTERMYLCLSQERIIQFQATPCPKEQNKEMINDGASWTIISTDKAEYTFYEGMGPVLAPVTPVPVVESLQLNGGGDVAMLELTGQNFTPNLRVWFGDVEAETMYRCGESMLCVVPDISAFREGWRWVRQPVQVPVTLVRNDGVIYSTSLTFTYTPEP

T5 sequence (P31266 53-474 E89G): as the sequence (P31266 53-474 K195E) above, with E37G, E143K counted along it
T4 sequence (P31266 53-474): as the sequence (P31266 53-474 K195E) above, with E143K counted along it
T2 sequence (P31266 53-474 E89G): as the sequence (P31266 53-474 K195E) above, with E37G, E143K counted along it
T1 sequence (P31266 53-474): as the sequence (P31266 53-474 K195E) above, with E143K counted along it
T3 sequence (P31266 53-474 K195E): as the sequence (P31266 53-474 K195E) above

Kd [1]	Kd [2]	Kd [3]	Ka [4]	Kd [4]	Ka [5]	Kd [5]	Ka [6]	Kd [6]	Binder
~5 nM	~5 nM	21 nM	–	–	–	–	–	–	SHARP residues 2776-2833 (domain or fragment, human, UniProt Q96T58 2776-2833, looked up, called mouse SHARP in the results and the legend; also called mouse SHARP; mouse co-repressor SHARP; source: recombinant from pSMT3, purified as previously described) RASANENSRFHPGSMPVIDDRPADAGSGAGLRVNTSEGVVLLSYSGQKTEGPQRISAK
–	–	–	1.5e+09 M⁻¹	3.5 nM	2.9e+08 M⁻¹	5.2 nM	5.8e+07 M⁻¹	21.1 nM	SHARP residues 2776-2833 (domain or fragment, human, UniProt Q96T58 2776-2833, looked up, the methods say human SHARP, the results and legend say mouse SHARP; species told as human in the methods and as mouse in the results and legend; also called mouse SHARP; source: bacterial recombinant, pSMT3, purified as previously described) RASANENSRFHPGSMPVIDDRPADAGSGAGLRVNTSEGVVLLSYSGQKTEGPQRISAK
–	–	–	4.8e+07 M⁻¹	20.8 nM	5.6e+07 M⁻¹	19.9 nM	5.1e+07 M⁻¹	22.4 nM	VLLSRKRRRQHGQLWFPEGFKVSEASKK (Notch1, RAM domain; also called mNotch1 RAM; mouse Notch 1 RAM; source: synthetic peptide (Peptide2.0, 95% purity)) [Notch1 RAM peptide (residues 1754-1781)]
~20 nM	~20 nM	~20 nM	–	–	–	–	–	–	VLLSRKRRRQHGQLWFPEGFKVSEASKK (Notch1 RAM domain; the methods give human Notch1 residues 1754-1781, the results and the legend call it the mouse RAM domain; Methods say human Notch1 residues, results say mouse; also called mouse Notch 1 RAM; mouse RAM domain from Notch1; source: synthetic peptide (Peptide2.0, 95% purity)) [Notch1 RAM peptide (human Notch1 residues 1754-1781)]

— paper PMC9398005, “A Drosophila Su(H) model of Adams-Oliver Syndrome reveals cofactor titration as a mechanism underlying developmental defects” (PLoS Genetics, 2021)
